Source: patent US20040106773A1 (priority 2003, published 2004)
Each block holds one molecule with its values, some of them ahead of it.

Experiments:
[1] = molecular target: rat PTH2R (rat, UniProt P70555 25-546); experiment: cell-based or functional assay
[2] = molecular target: T1, rat PTH2R (Rattus norvegicus, UniProt P70555); experiment: Measurement of [Ca2+]i using the FLIPR, rat PTH2R; type: cell-based
T1 construct: V5-His (appears only in the vector name); expressed in transfected cells
Description: (§1) HEK293 cells were transfected with rat and human PTH2R and cell lines that stably express the receptors were established and evaluated. One cell line was selected for each rat and human PTH2R and used for all the functional assays. Specifically, HEK293 cells were transfected with pCDNA3.1/V5-His-RatPTH2R plasmid DNA and pCDNA3.1-E/Uni-lacZ-HumanPTH2R plasmid DNA using FuGENE 6 transfection reagent (Roche Molecular Biochemicals). Three days after transfection, cells were put under selection with 800 μg/ml geneticin (G418, Gibco BRL). After three weeks of selection, single colonies were cloned using cloning cylinders. Cloned colonies were scaled up to T25 flasks. More than 10 cell lines for each plasmid were tested for function in the cAMP SPA assay.
(§2) HEK293 cells were seeded into […] clear-base 96 well plates (BD Biocoat) coated with poly-D-lysine at a density of 100,000 cells per well in MEM, and cultured overnight.
(§3) Curve-fitting and parameter estimation were carried out using Graph Pad Prism, 3.00 (GraphPad Software Inc., California, U.S.A.).

[3] = molecular target: T2, human PTH2R (Homo sapiens, UniProt P49190); experiment: cAMP SPA assay for PTH2R activation, human PTH2R; type: cell-based; conditions: HEK293 cells expressing human PTH2R, FIG. 4B
T2 construct: expressed in transfected cells
Description: as §1
(§4) HEK293PTH2R cells were seeded in a 96-well poly-D-lysine coated plate at 100,000 cells per well and cultured overnight. After washing with 200 μl of PBS and treating with 100 μl of 300 nM IBMX in assay medium (MEM without phenol red and FBS) at 37° C. for 10 min. The assay medium was then aspirated and the cells were washed with PBS. The cellular of cAMP was measured using cAMP SPA Direct Screening (Amersham/Pharmacia RPA559). Each concentration of ligand was repeated as triplicate.

[4] = molecular target: T1, rat PTH2R; experiment: cAMP SPA assay for PTH2R activation, rat PTH2R; type: cell-based; conditions: HEK293 cells expressing rat PTH2R, FIG. 4A
Description: as §1, §4

[5] = molecular target: T2, human PTH2R; experiment: Measurement of [Ca2+]i using the FLIPR, human PTH2R; type: cell-based; conditions: human PTH2R expressing HEK293 cells
Description: as §1, §2, §3

[6] = tested on: F-11 cells; conditions: DRG-like F-11 cells; cited from earlier work
[7] = molecular target: human PTH2R (human, UniProt P49190 25-550); experiment: cell-based or functional assay
Chain of human PTH2R (human, UniProt P49190 25-550) (P49190 25-550): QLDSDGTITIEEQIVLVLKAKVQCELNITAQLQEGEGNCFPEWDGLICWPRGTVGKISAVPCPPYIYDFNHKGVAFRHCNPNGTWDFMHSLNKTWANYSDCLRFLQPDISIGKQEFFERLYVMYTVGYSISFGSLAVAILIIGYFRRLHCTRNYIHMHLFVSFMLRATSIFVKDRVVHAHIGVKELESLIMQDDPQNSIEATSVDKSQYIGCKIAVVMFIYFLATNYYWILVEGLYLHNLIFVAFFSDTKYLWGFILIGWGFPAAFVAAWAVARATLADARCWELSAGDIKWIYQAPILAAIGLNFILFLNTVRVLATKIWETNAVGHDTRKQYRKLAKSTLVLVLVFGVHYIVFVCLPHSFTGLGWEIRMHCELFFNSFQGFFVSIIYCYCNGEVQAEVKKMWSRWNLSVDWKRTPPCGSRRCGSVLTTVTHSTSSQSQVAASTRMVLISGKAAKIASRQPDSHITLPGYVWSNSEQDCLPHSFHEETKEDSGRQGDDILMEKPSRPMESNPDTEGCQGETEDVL

T2 sequence (P49190 25-550): as above
Chain of rat PTH2R (rat, UniProt P70555 25-546) (P70555 25-546): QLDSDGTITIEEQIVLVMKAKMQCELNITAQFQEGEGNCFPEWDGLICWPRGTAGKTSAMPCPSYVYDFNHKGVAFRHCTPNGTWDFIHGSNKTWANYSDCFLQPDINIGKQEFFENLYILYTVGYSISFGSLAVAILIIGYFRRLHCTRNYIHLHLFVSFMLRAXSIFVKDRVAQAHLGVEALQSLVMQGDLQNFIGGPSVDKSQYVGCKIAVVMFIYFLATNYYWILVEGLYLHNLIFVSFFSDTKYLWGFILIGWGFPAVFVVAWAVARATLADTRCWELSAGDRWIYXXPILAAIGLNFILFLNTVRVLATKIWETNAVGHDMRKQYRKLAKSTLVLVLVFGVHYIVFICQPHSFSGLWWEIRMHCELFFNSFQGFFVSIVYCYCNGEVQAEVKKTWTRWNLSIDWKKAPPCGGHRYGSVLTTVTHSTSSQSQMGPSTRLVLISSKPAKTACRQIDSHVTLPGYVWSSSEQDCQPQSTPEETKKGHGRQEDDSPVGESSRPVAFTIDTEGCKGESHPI
T1 sequence (P70555 25-546): as above

Molecule: human PTH(1-34)
- agonist character, [Ca2+]i response ([2]; rat PTH2R expressing HEK293 cells): little response if any
- relative potency, cAMP [3]: slightly less potent than the other peptides
- relative potency, cAMP [4]: slightly less potent
- agonist character, [Ca2+]i response [5]: little response

Molecule: bovine tuberoinfundibular peptide of 39 residues [bTIP39]
- effect on cAMP [6]: increases cAMP

Molecule: rat PTH(1-34)
- maximum response compared to that of human TIP39 ([2]; rat PTH2R expressing cells, [Ca2+]i FLIPR): ~30%
- maximum response compared to that elicited by human TIP39 ([5]; [Ca2+]i FLIPR): 42±2%

The remaining lines, values ahead:

- logEC50, cAMP increase (cAMP SPA assay) in HEK293 cells stably expressing rat PTH2R [1]: -9.3
- maximal level of cAMP (pmol/100,000 cells) [1]: < 29
Molecule: human PTH (1-34) (from UniProt P01270 32-65) (peptide)

- maximal level of cAMP (pmol/100,000 cells) [1]: < 29
- maximum [Ca2+]i response compared to that of human TIP39 [1]: 30%
Molecule: rat PTH(1-34) (from UniProt P04089 32-65) (peptide)

- logEC50, [Ca2+]i increase (FLIPR) [7]: -7.8
- logEC50, cAMP increase (cAMP SPA assay) in HEK293 cells stably expressing human PTH2R [7]: -9.7
- logEC50, [Ca2+]i increase (FLIPR) [1]: -7.3
- logEC50, cAMP increase (cAMP SPA assay) in HEK293 cells stably expressing rat PTH2R [1]: -9.9
Molecule: SLALADDAAFRERARLLAALERRRWLDSYMQKLLLLDAP [mouse tuberoinfundibular peptide of 39 residues]
